Measurements as given in publication PMC3159919 (Structure (London, England : 1993), 2011).

B1: wild type CCL5 (RANTES) (natural protein, UniProt P13501 24-91, looked up)
chain: SPYSSDTTPCCFAYIARPLPRAHIKEYFYTSGKCSNPAVVFVTRKNRQVCANPEKKWVREYINSLEMS
B2: CCL5 E66S mutant (natural protein, UniProt P13501 24-91, looked up)
chain: SPYSSDTTPCCFAYIARPLPRAHIKEYFYTSGKCSNPAVVFVTRKNRQVCANPEKKWVREYINSLSMS

Experiments:
[1] = biological target: the molecule itself; assay: pulse gradient diffusion NMR + NMR spin relaxation
[2] = biological target: the molecule itself; assay: NMR residual dipolar couplings

Protein	stoichiometry N [1]	binding result [2]
B1	4	–
B2	–	binds
